Biological target: hCD47-ECD-his (human) (UniProt Q08722)
Assay: ELISA on coated human CD47-his after pre-incubating the antibody with human red blood cells (1E8/well)

Sequence of UniProt Q08722 (Q08722 other isoform, or with tags, fused parts or gaps): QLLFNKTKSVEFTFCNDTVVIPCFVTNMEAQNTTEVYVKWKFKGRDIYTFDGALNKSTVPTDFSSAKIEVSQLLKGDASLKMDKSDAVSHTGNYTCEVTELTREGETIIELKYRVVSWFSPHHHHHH

EC50: 3.15 µg/mL
Substance: ALX148
